Consider two proteins from paper doi:10.1101/2023.06.09.544317 (bioRxiv, 2023).

The data set “mass photometry” concerns the molecule itself. The data set is described as follows: mass photometry.
The data set “cryo-EM structure” deals with the molecule itself. The data set can be described thus: cryo-EM structure.

B1: cysteine tRNA ligase from archaea (Q8U227) (enzyme, P. furiosus, UniProt Q8U227 1-477, looked up)
chain: MLKVYNTLTKQKEEFKPLREGEVKMYVCGPTVYDYPHLGHARTYIAFDVIRRYLEHKGYTVLMVMNFTDIDDKIIKRARETGEDPKELAERFIKIFLEDMEALKVKPADIYPRVTDHIDDIIEFIGKLKEKGYAYEGSDGIYFEVKKFPEYGKLSGVKIEDLQKGARVEPGEGKKNPEDFALWKKAKPGEPKWDSPWGEGRPGWHIECSVMSSKYLGESFDIHGGGNDLIFPHHENEIAQSEACFGHEWVKYWLHTGFVMVKGEKMSKSLGNFVTIRELLKRYEPEVIRFFVLQKHYRSPLEYTEEGLQHAKNNLQRLYNTLENIRVALRNAEISYTWGELEFKTYEIIREGKRKFYEAMDDDFNTAEALKAVFEVANAINKYLTEANKPKESILRKALEFFKIVSEVFGVFEDYFREETKEREESEKLIELLVEVRKQLRKEKRYELADMIREELKKLGIQLEDRGSETTWKRIIT
The stoichiometry N is the number of molecules, sites or subunits per partner or assembly. Consider B1, for which, in “mass photometry”, the “stoichiometry N” value amounted to 2.

B2: Q8U0N8, uncharacterized protein of unknown function from Pyrococcus furiosus (natural protein, UniProt Q8U0N8 1-392, looked up)
chain: MSESINNITKPKERRDFVVMAGMRKDGTIDFIKVYALNEKLAIEVLEAFLKENNIHPSDFIVIQRGYEDVKDKKAITTRSEEELSAMLGRLGLRLVSNGVLYTDGIDKLYQITAISRELFESLQKEKREIFEDVQEKITFNFSKVDLPEKYVKKLRLLELMEDTIIFNMAELEIPNLLKAIVEGTVLIPRFLEKEDLIIRIFDEELHEYRGSYFDKVLIKPPIIHWDFYLDSLEDFSFKKVEESIYIAPLFLRATGGFLILTEPPEDLVKTLLKLKKRGEVRTILEGKRITIPINFTLIVDTRHPERYAGLKFPIRINLPPLDDETFLKVLETNLGITPPTEIVRIFPPDYKTFLGVELIKNLFEKLKLTEKGKDEVSLLKEAATIITGGTP
On to B2, for which the “stoichiometry N” value in “cryo-EM structure” came out at 6.
